This passage reports Tm results from the array DNA melting data of Ke et al..

This data set in a line: melting temperature; melt of duplexes. Particulars: sodium 0.0675 M; strand 1 µM.
In the case of “CGACGTGCGCAATGTGCTG+CAGCACATATTGCACGTCG ((((((((...((((((((+))))))))...))))))))”, the Tm – broadly, the temperature at which the thermal transition is half complete – is 49.2 °C.
Turning to “CGACGTGCCGTATGTGCTG+CAGCACATTGAGCACGTCG ((((((((...((((((((+))))))))...))))))))”, the melting temperature (Tm) amounted to 49.8 °C.
In the case of “CGACGTGCGTGATGTGCTG+CAGCACATTTGGCACGTCG ((((((((...((((((((+))))))))...))))))))” it was 50.4 °C.
As for “CGACGTGCTTAATGTGCTG+CAGCACATGCTGCACGTCG ((((((((...((((((((+))))))))...))))))))”, the figure is 49.1 °C; as for “CGACGTGCTCAATGTGCTG+CAGCACATGTTGCACGTCG ((((((((...((((((((+))))))))...))))))))”, 50.1 °C.
On to “CGACGTGCTAAATGTGCTG+CAGCACATATGGCACGTCG ((((((((.(.((((((((+)))))))).).))))))))”, for which the Tm was found to be 52 °C.
As for “CGACGTGCGTGATGTGCTG+CAGCACATCTGGCACGTCG ((((((((..(((((((((+)))))))))..))))))))”, the figure is 55.7 °C; as for “CGACGTGCTGAATGTGCTG+CAGCACATGGCGCACGTCG ((((((((...((((((((+))))))))...))))))))”, 52.3 °C.
As for “CGACGTGCCCTATGTGCTG+CAGCACATAAGGCACGTCG (((((((((.(((((((((+))))))))).)))))))))”, the figure is 55.6 °C; as for “CGACGTGCGAGATGTGCTG+CAGCACATGCGGCACGTCG ((((((((...((((((((+))))))))...))))))))”, 50.4 °C; as for “CGACGTGCCAGATGTGCTG+CAGCACATCCCGCACGTCG ((((((((..(((((((((+)))))))))..))))))))”, 53.3 °C.
As for “CGACGTGCGCTATGTGCTG+CAGCACATGACGCACGTCG (((((((((..((((((((+))))))))..)))))))))”, the figure is 52.4 °C; as for “CGACGTGCCTGATGTGCTG+CAGCACATAGAGCACGTCG ((((((((...((((((((+))))))))...))))))))”, 51.2 °C.
Regarding “CGACGTGCGTTATGTGCTG+CAGCACATTGAGCACGTCG ((((((((...((((((((+))))))))...))))))))”, the Tm was 54 °C.
As for “CGACGTGCAAAATGTGCTG+CAGCACATGAGGCACGTCG ((((((((...((((((((+))))))))...))))))))”, the figure is 52.5 °C.
For “CGACGTGCGCGATGTGCTG+CAGCACATTTAGCACGTCG ((((((((...((((((((+))))))))...))))))))”, the Tm was found to be 52.2 °C.
“CGACGTGCAGTATGTGCTG+CAGCACATTTGGCACGTCG ((((((((...((((((((+))))))))...))))))))”: the midpoint of thermal melting (Tm) was found to be 49.2 °C.
As for “CGACGTGCGCTATGTGCTG+CAGCACATCTAGCACGTCG ((((((((...((((((((+))))))))...))))))))”, the figure is 50.4 °C; as for “CGACGTGCTTAATGTGCTG+CAGCACATAGTGCACGTCG ((((((((...((((((((+))))))))...))))))))”, 44 °C; as for “CGACGTGCACGATGTGCTG+CAGCACATTTGGCACGTCG ((((((((...((((((((+))))))))...))))))))”, 46.8 °C.
In the case of “CGACGTGCAGAATGTGCTG+CAGCACATGGCGCACGTCG ((((((((...((((((((+))))))))...))))))))” it was 55.9 °C.
In the case of “CGACGTGCCTGATGTGCTG+CAGCACATTGAGCACGTCG ((((((((...((((((((+))))))))...))))))))” it was 51 °C.
As to “CGACGTGCTGTATGTGCTG+CAGCACATCTTGCACGTCG ((((((((...((((((((+))))))))...))))))))”, the Tm amounted to 49.9 °C.
Take “CGACGTGCTGTATGTGCTG+CAGCACATCGGGCACGTCG ((((((((...((((((((+))))))))...))))))))”: the Tm was 50.6 °C.
Take “CGACGTGCTGCATGTGCTG+CAGCACATTTAGCACGTCG (((((((((..((((((((+))))))))..)))))))))”: the Tm was determined as 51 °C.
“CGACGTGCCACATGTGCTG+CAGCACATGACGCACGTCG ((((((((..(((((((((+)))))))))..))))))))”: the midpoint of thermal melting (Tm) worked out at 49.5 °C.
With “CGACGTGCTGTATGTGCTG+CAGCACATACAGCACGTCG (((((((((((((((((((+)))))))))))))))))))”, the midpoint of thermal melting (Tm) was found to be 62.1 °C.
As for “CGACGTGCAATATGTGCTG+CAGCACATGACGCACGTCG ((((((((...((((((((+))))))))...))))))))”, the figure is 48.2 °C; as for “CGACGTGCAAGATGTGCTG+CAGCACATGCGGCACGTCG ((((((((...((((((((+))))))))...))))))))”, 50.2 °C; as for “CGACGTGCGAGATGTGCTG+CAGCACATATCGCACGTCG ((((((((((.((((((((+)))))))).))))))))))”, 60.4 °C.
As for “CGACGTGCCGGATGTGCTG+CAGCACATTCAGCACGTCG ((((((((.(.((((((((+)))))))).).))))))))”, the figure is 52.4 °C; as for “CGACGTGCTACATGTGCTG+CAGCACATGTCGCACGTCG ((((((((.((((((((((+)))))))))).))))))))”, 57.2 °C.
As for “CGACGTGCATAATGTGCTG+CAGCACATTCGGCACGTCG ((((((((..(((((((((+)))))))))..))))))))”, the figure is 51.8 °C.
Take “CGACGTGCGGTATGTGCTG+CAGCACATGCGGCACGTCG ((((((((.(.((((((((+)))))))).).))))))))”: the Tm amounted to 55.1 °C.
Turning to “CGACGTGCCAGATGTGCTG+CAGCACATTGCGCACGTCG ((((((((...((((((((+))))))))...))))))))”, the Tm is 51.2 °C.
Regarding “CGACGTGCTCCATGTGCTG+CAGCACATGTAGCACGTCG (((((((((.(((((((((+))))))))).)))))))))”, the midpoint of thermal melting (Tm) is 56.3 °C.
As for “CGACGTGCGCGATGTGCTG+CAGCACATCCAGCACGTCG ((((((((..(((((((((+)))))))))..))))))))”, the figure is 55.6 °C.
“CGACGTGCGTGATGTGCTG+CAGCACATCGAGCACGTCG ((((((((..(((((((((+)))))))))..))))))))”: the Tm was 58.6 °C.
As for “CGACGTGCGTTATGTGCTG+CAGCACATCGAGCACGTCG ((((((((...((((((((+))))))))...))))))))”, the figure is 52.2 °C; as for “CGACGTGCTCTATGTGCTG+CAGCACATCCCGCACGTCG ((((((((...((((((((+))))))))...))))))))”, 47.5 °C; as for “CGACGTGCTTAATGTGCTG+CAGCACATGAGGCACGTCG ((((((((.(.((((((((+)))))))).).))))))))”, 52.7 °C.
In the case of “CGACGTGCCGAATGTGCTG+CAGCACATGACGCACGTCG ((((((((...((((((((+))))))))...))))))))” it was 50.1 °C; in that of “CGACGTGCGTCATGTGCTG+CAGCACATTCGGCACGTCG ((((((((...((((((((+))))))))...))))))))”, 48.7 °C; in that of “CGACGTGCCTCATGTGCTG+CAGCACATTTGGCACGTCG (((((((((..((((((((+))))))))..)))))))))”, 53.6 °C.
Take “CGACGTGCGACATGTGCTG+CAGCACATCGTGCACGTCG ((((((((...((((((((+))))))))...))))))))”: the Tm was found to be 47.6 °C.
Turning to “CGACGTGCGTGATGTGCTG+CAGCACATCCCGCACGTCG (((((((((.(((((((((+))))))))).)))))))))”, the Tm was 59.4 °C.
In the case of “CGACGTGCGCAATGTGCTG+CAGCACATCCTGCACGTCG ((((((((...((((((((+))))))))...))))))))” it was 49.2 °C.
In the case of “CGACGTGCGCCATGTGCTG+CAGCACATGAAGCACGTCG ((((((((..(((((((((+)))))))))..))))))))” it was 57.1 °C; in that of “CGACGTGCTTAATGTGCTG+CAGCACATCTCGCACGTCG ((((((((...((((((((+))))))))...))))))))”, 47.8 °C; in that of “CGACGTGCGCCATGTGCTG+CAGCACATACTGCACGTCG ((((((((...((((((((+))))))))...))))))))”, 48.2 °C.
In the case of “CGACGTGCGGAATGTGCTG+CAGCACATTAAGCACGTCG ((((((((..(((((((((+)))))))))..))))))))” it was 55.8 °C.
Regarding “CGACGTGCCCAATGTGCTG+CAGCACATGGAGCACGTCG ((((((((.(.((((((((+)))))))).).))))))))”, the melting temperature (Tm) was 55.5 °C.
In the case of “CGACGTGCTATATGTGCTG+CAGCACATGCAGCACGTCG (((((((((..((((((((+))))))))..)))))))))” it was 52.5 °C.
In the case of “CGACGTGCCGTATGTGCTG+CAGCACATGGAGCACGTCG ((((((((...((((((((+))))))))...))))))))” it was 50.8 °C.
In the case of “CGACGTGCGAGATGTGCTG+CAGCACATATTGCACGTCG ((((((((.(.((((((((+)))))))).).))))))))” it was 54.4 °C; in that of “CGACGTGCGTGATGTGCTG+CAGCACATGATGCACGTCG ((((((((.(.((((((((+)))))))).).))))))))”, 54 °C.
For the substance “CGACGTGCCACATGTGCTG+CAGCACATAGCGCACGTCG ((((((((...((((((((+))))))))...))))))))”, the midpoint of thermal melting (Tm) is 48.5 °C.
As for “CGACGTGCCCAATGTGCTG+CAGCACATTATGCACGTCG ((((((((..(((((((((+)))))))))..))))))))”, the figure is 50.1 °C; as for “CGACGTGCCACATGTGCTG+CAGCACATTGAGCACGTCG ((((((((...((((((((+))))))))...))))))))”, 52.2 °C.
For “CGACGTGCCTAATGTGCTG+CAGCACATCACGCACGTCG ((((((((.(.((((((((+)))))))).).))))))))”, the Tm turned out to be 46.3 °C.
In the case of “CGACGTGCACAATGTGCTG+CAGCACATCTGGCACGTCG ((((((((...((((((((+))))))))...))))))))” it was 47.5 °C; in that of “CGACGTGCAAAATGTGCTG+CAGCACATTCCGCACGTCG ((((((((..(((((((((+)))))))))..))))))))”, 50.6 °C.
In the case of “CGACGTGCCTAATGTGCTG+CAGCACATTCCGCACGTCG ((((((((..(((((((((+)))))))))..))))))))”, the Tm stood at 49.7 °C.
As for “CGACGTGCCGAATGTGCTG+CAGCACATGGAGCACGTCG ((((((((...((((((((+))))))))...))))))))”, the figure is 53.1 °C; as for “CGACGTGCATCATGTGCTG+CAGCACATCGGGCACGTCG ((((((((...((((((((+))))))))...))))))))”, 47.9 °C; as for “CGACGTGCATAATGTGCTG+CAGCACATTAAGCACGTCG ((((((((.((((((((((+)))))))))).))))))))”, 55.1 °C.
